The values below come from patent publication US20020090696.

In data set [1] the target is GST-2.5 fusion protein [GST: P08515].
In data set [2] the target is GST [GST: P08515].

B1: Rat SAPKβ (protein)
chain: MSLHFLYYCSEPTLDVKIAFCQGFDKHVDVSSVVKHYNMSKSKVDNQFYSVEVGDSTFTVLKRYQNLKPIGSGAQGIVCAAYDAVLDRNVAIKKLSRPFQNQTHAKRAYRELVLMKCVNHKNIISLLNVFTPQKTLEEFQDVYLVMELMDANLCQVIQMELDHERMSYLLYQMLCGIKHLHSAGIIHRDLKPSNIVVKSDCTLKILDFGLARTAGTSFMMTPYVVTRYYRAPEVILGMGYKENVDIWSVGCIMGEMVRHKILFPGRDYIDQWNKVIEQLGTPCPEFMKKLQPTVRNYVENRPKYAGLTFPKLFPDSLFPADSEHNKLKASQARDLLSKMLVIDPAKRISVDDALQHPYINVWYDPAEVEAPPPQIYDKQLDEREHTIEEWKELIYKEVMNSEEKTKNGVVKGQPSPSGAAVNSSESLPPSSSVNDISSMSTDQTLASDTDSSLEASAGPLGCCR
As for B1, in data set [1], the “in vitro kinase assay, phosphorylation of protein 2.5” value is recorded as “Rat SAPKβ ... phosphorylates protein 2.5”; the “in vitro phosphorylation assay” value is “hJIP1/IB1 is a substrate for JNK3 in the same in vitro phosphorylation assay”; the “in vitro phosphorylation of a GST c-Jun fusion protein” value is “this protein greatly reduces phosphorylation of a GST c-Jun fusion protein in a concentration dependent manner”; the “phosphorylation of GST-c-Jun in a kinase reaction with c-Jun and rSAPKβ” value is reported as “protein 2.5 shows a dose-dependent inhibition of phosphorylation of GST-c-Jun”. Also, the “phosphorylation of GST-c-Jun in a kinase reaction with c-Jun and rSAPKβ” value in data set [2] is “GST alone shows no effect”.
